Assay results: paper PMC4051121

Biological target: GltPh-K55C-A364C cross-linked with mercury (Pyrococcus horikoshii) (UniProt O59010)
Test: crystal structure; GltPh^in crystals grown at 4°C in 14–20% PEG 400, 0.1 M potassium citrate pH 5.0–6.0, with lipids and n-decyl-α-D-maltopyranoside; soaked in Tl+ or alkali-free solutions; trimer with three protomers

A stoichiometry N of 3 was found for “GltPh-K55C-A364C cross-linked with mercury (from UniProt O59010 1-425) (natural protein)” in this work.
